Measured values from article PMC2810501.
pKd: −log10 of the molar value.

Target: specific saturable binding sites for S100A8/A9 on cell membranes of blood MDSC (carboxylated N-glycan receptors)
Test: radioligand binding

S100A8/A9 heterodimer, purified, Na125I-labeled (from UniProt P27005 1-89; P31725 1-113) (complex)
pKd: 7.43
